Test system: Bacillus subtilis
Assay: cleaved RNA product abundance (RNA/gDNA barcode ratio) relative to median wild-type variant (ratio to wild type); higher = more accumulation of the downstream cleavage product
Settings: experiment (reporter, strain, medium): exp 8a: truncated aprE reporter, strain BJT201 with 2% xylose (RNase J1 expressed); cleavage site: glnRA (positions -5 to +31 mutated)
Method in brief: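 Sequencing of barcodes from gel-selected, reverse-transcribed cleaved RNA and from genomic DNA, with UMI collapsing, yielded a per-construct RNA:gDNA ratio. Scaled to the median construct with the unmutated site, this ratio is the cleaved product abundance. The barcoded reporters (truncated aprE or tetM mRNAs with mutagenized RNase Y cleavage-site windows) were integrated into the B. subtilis chromosome, and cultures grew in LB at 37°C from OD600 0.0003 to 0.3.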

Sequence	cleaved RNA product abundance
CGACATGTCCCGCTTCTTTCATTAATCCGTTAGCAACAGTTTTGCTATATACATTTACGTTTTAAGAGGAGGAAT	2.01
CGACATGTCCCGCTTCTTTCATTAATCCGTTAGCAACAGTTTTGCTATATACATTTACTTTTTAAGAGGAGGAAT	1.18
CGACATGTCCCGCTTCTTTCATTAATCCGTTAGCAACAGTTTTGCTATATACATTTAGCTTTTAAGAGGAGGAAT	0.489
CGACATGTCCCGCTTCTTTCATTAATCCGTTAGCAACAGTTTTGCTATATACATTTTCCTTTTAAGAGGAGGAAT	0.423
CGACATGTCCCGCTTCTTTCATTAATCCGTTAGCAACAGTTTTGCTATATATATTTACCTTTTAAGAGGAGGAAT	0.588
CGACATGTCCCGCTTCTTTCATTAATCCGTTAGCAACAGTTTTTCTATATACATTTACCTTTTAAGAGGAGGAAT	0.345
CGACATGTCCCGCTTCTTTCATTAATCCGTTAGCAACATTTTTGCTATATACATTTACCTTTTAAGAGGAGGAAT	1.12
CGACATGTCCCGCTTCTTTCATTAATCCGTTAGCAACCCTTTTGCTATATACATTTACCTTTTAAGAGGAGGAAT	0.451
CGACATGTCCCGCTTCTTTCATTAATCCGTTAGCAACCGTGTTACTATATAAATTTACCTTTTAAGAGGAGGAAT	0.271
CGACATGTCCCGCTTCTTTCATTAATCCGTTAGCAACCGTTATGCTATATACATTTACCTTTTAAGAGGAGGAAT	0.316
CGACATGTCCCGCTTCTTTCATTAATCCGTTAGCAACCGTTTTGCAATATACATTTACCTTTTAAGAGGAGGAAT	0.344
CGACATGTCCCGCTTCTTTCATTAATCCGTTAGCAACCGTTTTGCTAAATACATTTACCTTTTAAGAGGAGGAAT	0.432
CGACATGTCCCGCTTCTTTCATTAATCCGTTAGCAACCGTTTTGCTATATACATTTACATTTTAAGAGGAGGAAT	0.523
CGACATGTCCCGCTTCTTTCATTAATCCGTTAGCAACCGTTTTGCTATATACATTTACCTTTTAAGAGGAGGAAT	0.617
CGACATGTCCCGCTTCTTTCATTAATCCGTTAGCAACCGTTTTGCTTTATACATTTACCTTTTAAGAGGAGGAAT	0.145
CGACATGTCCCGCTTCTTTCATTAATCCGTTAGCAACCGTTTTGGTATATACATTTACCTTTTAAGAGGAGGAAT	0.187
CGACATGTCCCGCTTCTTTCATTAATCCGTTAGCAACCGTTTTTCTATATACATTTACCTTTTAAGAGGAGGAAT	0.384
CGACATGTCCCGCTTCTTTCATTAATCCGTTAGCAACCTTTTTGCTATATACATTTACCTTTTAAGAGGAGGAAT	1.44
CGACATGTCCCGCTTCTTTCATTAATCCGTTAGCAACGGTTGTGCTATATACATTTACCTTTTAAGAGGAGGAAT	0.353
CGACATGTCCCGCTTCTTTCATTAATCCGTTAGCAACGGTTTTACTATATACATTTACCTTTTAAGAGGAGGAAT	0.495
CGACATGTCCCGCTTCTTTCATTAATCCGTTAGCAACGGTTTTGATATATACATTTACCTTTTAAGAGGAGGAAT	0.515
CGACATGTCCCGCTTCTTTCATTAATCCGTTAGCAACGGTTTTGCCATATACATTTACCTTTTAAGAGGAGGAAT	0.202

Sequence	cleaved RNA product abundance
CGACATGTCCCGCTTCTTTCATTAATCCGTTAGCAACGGTTTTGCTATATACATTTACCTTTTAAGAGGAGGAAT	0.387
CGACATGTCCCGCTTCTTTCATTAATCCGTTAGCAACGGTTTTGTTATATACATTTACCTTTTAAGAGGAGGAAT	0.364
CGACATGTCCCGCTTCTTTCATTAATCCGTTAGCAACTAATTTGCTATATACATTTACCTTTTAAGAGGAGGAAT	1.85
CGACATGTCCCGCTTCTTTCATTAATCCGTTAGCAACTAGTTTGCTATATACATTTACCTTTTAAGAGGAGGAAT	1.29
CGACATGTCCCGCTTCTTTCATTAATCCGTTAGCAACTATATTGCTATATACATTTACCTTTTAAGAGGAGGAAT	1.45
CGACATGTCCCGCTTCTTTCATTAATCCGTTAGCAACTATTATGCTATATACATTTACCTTTTAAGAGGAGGAAT	0.785
CGACATGTCCCGCTTCTTTCATTAATCCGTTAGCAACTATTCTGCTATATACATTTACCTTTTAAGAGGAGGAAT	0.838
CGACATGTCCCGCTTCTTTCATTAATCCGTTAGCAACTATTTAGCTATATACATTTACCTTTTAAGAGGAGGAAT	1.01
CGACATGTCCCGCTTCTTTCATTAATCCGTTAGCAACTATTTTACTATATACATTTACCTTTTAAGAGGAGGAAT	0.726
CGACATGTCCCGCTTCTTTCATTAATCCGTTAGCAACTATTTTGATATATACATTTACCTTTTAAGAGGAGGAAT	0.503
CGACATGTCCCGCTTCTTTCATTAATCCGTTAGCAACTATTTTGCAATATACATTTACCTTTTAAGAGGAGGAAT	0.531
CGACATGTCCCGCTTCTTTCATTAATCCGTTAGCAACTATTTTGCCATATACATTTACCTTTTAAGAGGAGGAAT	0.121
CGACATGTCCCGCTTCTTTCATTAATCCGTTAGCAACTATTTTGCTATAAACATTTACCTTTTAAGAGGAGGAAT	1
CGACATGTCCCGCTTCTTTCATTAATCCGTTAGCAACTATTTTGCTATATACAATTACCTTTTAAGAGGAGGAAT	1.98
CGACATGTCCCGCTTCTTTCATTAATCCGTTAGCAACTATTTTGCTATATACACTTACCTTTTAAGAGGAGGAAT	1.29
CGACATGTCCCGCTTCTTTCATTAATCCGTTAGCAACTATTTTGCTATATACATCTACCTTTTAAGAGGAGGAAT	0.944
CGACATGTCCCGCTTCTTTCATTAATCCGTTAGCAACTATTTTGCTATATACATGTACCTTTTAAGAGGAGGAAT	1.19
CGACATGTCCCGCTTCTTTCATTAATCCGTTAGCAACTATTTTGCTATATACATTTACATTTTAAGAGGAGGAAT	3.23
CGACATGTCCCGCTTCTTTCATTAATCCGTTAGCAACTATTTTGCTATATACATTTACCCTTTAAGAGGAGGAAT	0.937
CGACATGTCCCGCTTCTTTCATTAATCCGTTAGCAACTATTTTGCTATATACATTTACCTTTTAAGAGGAGGAAT	1.34
CGACATGTCCCGCTTCTTTCATTAATCCGTTAGCAACTATTTTGCTATATACATTTACTTTTTAAGAGGAGGAAT	1.55
CGACATGTCCCGCTTCTTTCATTAATCCGTTAGCAACTATTTTGCTATATACATTTAGCTTTTAAGAGGAGGAAT	1.16

Sequence	cleaved RNA product abundance
CGACATGTCCCGCTTCTTTCATTAATCCGTTAGCAACTATTTTGCTATATACGTTTACCTTTTAAGAGGAGGAAT	0.197
CGACATGTCCCGCTTCTTTCATTAATCCGTTAGCAACTATTTTGCTATATATATTTACCTTTTAAGAGGAGGAAT	1.42
CGACATGTCCCGCTTCTTTCATTAATCCGTTAGCAACTATTTTGCTATCTACATTTACCTTTTAAGAGGAGGAAT	0.108
CGACATGTCCCGCTTCTTTCATTAATCCGTTAGCAACTATTTTGCTTTATACATTTACCTTTTAAGAGGAGGAAT	0.459
CGACATGTCCCGCTTCTTTCATTAATCCGTTAGCAACTATTTTGGTATATACATTTACCTTTTAAGAGGAGGAAT	0.273
CGACATGTCCCGCTTCTTTCATTAATCCGTTAGCAACTATTTTGTTATATACATTTACCTTTTAAGAGGAGGAAT	0.578
CGACATGTCCCGCTTCTTTCATTAATCCGTTAGCAACTATTTTTCTATATACATTTACCTTTTAAGAGGAGGAAT	0.613
CGACATGTCCCGCTTCTTTCATTAATCCGTTAGCAACTCATTTGCTATATACATTTACCTTTTAAGAGGAGGAAT	1.46
CGACATGTCCCGCTTCTTTCATTAATCCGTTAGCAACTCTTTTACTATATACATTTACCTTTTAAGAGGAGGAAT	0.579
CGACATGTCCCGCTTCTTTCATTAATCCGTTAGCAACTCTTTTGATATATACATTTACCTTTTAAGAGGAGGAAT	0.51
CGACATGTCCCGCTTCTTTCATTAATCCGTTAGCAACTCTTTTGCTATAAACATTTACCTTTTAAGAGGAGGAAT	1.3
CGACATGTCCCGCTTCTTTCATTAATCCGTTAGCAACTCTTTTGCTATATACATTTAACTTTTAAGAGGAGGAAT	1.36
CGACATGTCCCGCTTCTTTCATTAATCCGTTAGCAACTCTTTTGCTATATACATTTACCTTTTAAGAGGAGGAAT	1.15
CGACATGTCCCGCTTCTTTCATTAATCCGTTAGCAACTCTTTTTCTATATACATTTACCTTTTAAGAGGAGGAAT	0.642
CGACATGTCCCGCTTCTTTCATTAATCCGTTAGCAACTGAGTTGCTATATACATTTACCTTTTAAGAGGAGGAAT	0.261
CGACATGTCCCGCTTCTTTCATTAATCCGTTAGCAACTGATTTACTATATACATTTACCTTTTAAGAGGAGGAAT	0.502
CGACATGTCCCGCTTCTTTCATTAATCCGTTAGCAACTGATTTGATATATACATTTACCTTTTAAGAGGAGGAAT	0.463
CGACATGTCCCGCTTCTTTCATTAATCCGTTAGCAACTGATTTGCAATATACATTTACCTTTTAAGAGGAGGAAT	0.49
CGACATGTCCCGCTTCTTTCATTAATCCGTTAGCAACTGATTTGCCATATACATTTACCTTTTAAGAGGAGGAAT	0.226
CGACATGTCCCGCTTCTTTCATTAATCCGTTAGCAACTGATTTGCTAAATACATTTACCTTTTAAGAGGAGGAAT	0.217
CGACATGTCCCGCTTCTTTCATTAATCCGTTAGCAACTGATTTGCTATAAACATTTACCTTTTAAGAGGAGGAAT	0.686
CGACATGTCCCGCTTCTTTCATTAATCCGTTAGCAACTGATTTGCTATATACATATACCTTTTAAGAGGAGGAAT	1
